Results from patent US20230212319A1, “NOVEL ANTIGEN BINDING DOMAINS AND SYNTHETIC ANTIGEN RECEPTORS INCORPORATING THE SAME” (University of Southern California, priority 2020, published 2023).

B1: 22210 (protein)
chain: MALPVTALLLPLALLLHAARPACPQLGPYELWELSHGTGGGGSGGGGSGGGGSEFDIQMTQSPSSLSASVGDRVTITCKASDHINNWLAWYQQKPGQAPKLLIYGATTLETGVPSRFSGSGSGTDYTLTISSLQPEDFATYYCQQSWNTPWTFGQGTKLEIKRLEDLKNVFPPEVAVFEPSKAEIAHTQKATLVCLATGFYPDHVELSWWVNGKEVHSGVCTDPQPLKEQPALNDSRYCLSSRLRVSATFWQNPRNHFRCQVQFYGLSENDEWTQDRAKPVTQIVSAEAWGRADCGITSASYHQGVLSATILYEILLGKATLYAVLVSALVLMAMVKRKDSRGRAKRSGSGATNFSLLKQAGDVEENPGPTSATMDWIWRILFLVGAATGAHSGPQVQLQESGGGLAQAGGSLRLSCAASGRTFSMGWFRQAPGKEREFVAAITYSGGSPYYASSVRGRFTISRDNAKNTVYLQMNSLKPEDTAVYYCAANPTYGSDWNAENWGQGTQVTVSSGSGGGGSGGGGSGGGGSFEQVQLQQPGAELVKPGASVKMSCKASGYAFSSYWINWMKQKPGQGLEWIGQIYPGDGDTNYNGKFKGRATLTADTSSSTAYMQLSSLTSEDSAVYFCARSITTVVGCAMDYWGQGTSVTVSSTRIQNPDPAVYQLRDSKSSDKSVCLFTDFDSQTNVSQSKDSDVYITDKCVLDMRSMDFKSNSAVAWSNKSDFACANAFNNSIIPEDTFFPSSDVPCDVKLVEKSFETDTNLNFQNLSVIGFRILLLKVAGFNLLMTLRLWSSRAKRSGSGVKQTLNFDLLKLAGDVESNPGPSRGHMTEYKPTVRLATRDDVPRAVRTLAAAFADYPATRHTVDPDRHIERVTELQELFLTRVGLDIGKVWVADDGAAVAVWTTPESVEAGAVFAEIGPRMAELSGSRLAAQQQMEGLLAPHRPKEPAWFLATVGVSPDHQGKGLGSAVVLPGVEAAERAGVPAFLETSAPRNLPFYERLGFTVTADVEVPEGPRTWCMTRKPGA
B2: 21986 (protein)
chain: MALPVTALLLPLALLLHAARPQLQLQESGPGLVKPSETLSLTCTVSGDSISSGDYYWGWIRQPPGKGLEWIGHIYYSGVTYYNPSLKSRVTISVDTSRNQFSLKLSSVTAADTAVYYCTREDSSNWRSRGQGTLVTVSSLEDLKNVFPPEVAVFEPSEAEISHTQKATLVCLATGFYPDHVELSWWVNGKEVHSGVCTDPQPLKEQPALNDSRYCLSSRLRVSATFWQNPRNHFRCQVQFYGLSENDEWTQDRAKPVTQIVSAEAWGRADCGFTSESYQQGVLSATILYEILLGKATLYAVLVSALVLMAMVKRKDSRGRAKRSGSGATNFSLLKQAGDVEENPGPTSMDWIWRILFLVGAATGAHSFEEVQLLESGGGLVQPGGSLRLSCAASGFTFSSYAMSWVRQAPGKGLEWVSSISGSGDYIYYADSVKGRFTISRDISKNTLYLQMNSLRAEDTAVYYCAKEGTGANSSLADYRGQGTLVTVSSTRIQNPDPAVYQLRDSKSSDKSVCLFTDFDSQTNVSQSKDSDVYITDKCVLDMRSMDFKSNSAVAWSNKSDFACANAFNNSIIPEDTFFPSPESSCDVKLVEKSFETDTNLNFQNLSVIGFRILLLKVAGFNLLMTLRLWSSRAKRSGSGVKQTLNFDLLKLAGDVESNPGPSRGHMTEYKPTVRLATRDDVPRAVRTLAAAFADYPATRHTVDPDRHIERVTELQELFLTRVGLDIGKVWVADDGAAVAVWTTPESVEAGAVFAEIGPRMAELSGSRLAAQQQMEGLLAPHRPKEPAWFLATVGVSPDHQGKGLGSAVVLPGVEAAERAGVPAFLETSAPRNLPFYERLGFTVTADVEVPEGPRTWCMTRKPGA
B3: 21987 (protein)
chain: MALPVTALLLPLALLLHAARPQLQLQESGPGLVKPSETLSLTCTVSGDSISSGDYYWGWIRQPPGKGLEWIGHIYYSGVTYYNPSLKSRVTISVDTSRNQFSLKLSSVTAADTAVYYCTREDSSNWRSRGQGTLVTVSSLEDLKNVFPPEVAVFEPSEAEISHTQKATLVCLATGFYPDHVELSWWVNGKEVHSGVCTDPQPLKEQPALNDSRYCLSSRLRVSATFWQNPRNHFRCQVQFYGLSENDEWTQDRAKPVTQIVSAEAWGRADCGFTSESYQQGVLSATILYEILLGKATLYAVLVSALVLMAMVKRKDSRGRAKRSGSGATNFSLLKQAGDVEENPGPTSMDWIWRILFLVGAATGAHSFEQVQLVESGGGLVQPGGSLRLSCAASGFTFTNHAMSWVRQAPGKGLELVSSISGNGRTTYYADSVKGRFTISRDISKNTLDLQMNSLRAEDTAVYYCAKDGGETLVDSRGQGTLVTVSSTRIQNPDPAVYQLRDSKSSDKSVCLFTDFDSQTNVSQSKDSDVYITDKCVLDMRSMDFKSNSAVAWSNKSDFACANAFNNSIIPEDTFFPSPESSCDVKLVEKSFETDTNLNFQNLSVIGFRILLLKVAGFNLLMTLRLWSSRAKRSGSGVKQTLNFDLLKLAGDVESNPGPSRGHMTEYKPTVRLATRDDVPRAVRTLAAAFADYPATRHTVDPDRHIERVTELQELFLTRVGLDIGKVWVADDGAAVAVWTTPESVEAGAVFAEIGPRMAELSGSRLAAQQQMEGLLAPHRPKEPAWFLATVGVSPDHQGKGLGSAVVLPGVEAAERAGVPAFLETSAPRNLPFYERLGFTVTADVEVPEGPRTWCMTRKPGA
B4: 22047 (protein)
chain: MALPVTALLLPLALLLHAARPQLQLQESGPGLVKPSETLSLTCTVSGDSISSGDYYWGWIRQPPGKGLEWIGHIYYSGVTYYNPSLKSRVTISVDTSRNQFSLKLSSVTAADTAVYYCTREDSSNWRSRGQGTLVTVSSLEDKTHTCPPCPAPIKTDVITMDPKDNCSKDANDTLLLQLTNTSAYYMYLLLLLKSVVYFAIITCCLLRRTAFCCNGEKSRAKRSGSGATNFSLLKQAGDVEENPGPTSMDWIWRILFLVGAATGAHSFEVQLLESGGGLIQPGGSLRLSCAASGFTFSSHAMTWVRQAPGKGLEWVSAISGSGDYTHYADSVKGRFTISRDNSKNTVYLQMNSLRAEDSAVYYCAKDEDGGSLLGHRGQGTLVTVSSTRIQNPDPAVYQLRDSKSSDKSVCLFTDFDSQTNVSQSKDSDVYITDKCVLDMRSMDFKSNSAVAWSNKSDFACANAFNNSIIPEDTFFPSPESSCDVKLVEKSFETDTNLNFQNLSVIGFRILLLKVAGFNLLMTLRLWSSRAKRSGSGVKQTLNFDLLKLAGDVESNPGPSRGHMTEYKPTVRLATRDDVPRAVRTLAAAFADYPATRHTVDPDRHIERVTELQELFLTRVGLDIGKVWVADDGAAVAVWTTPESVEAGAVFAEIGPRMAELSGSRLAAQQQMEGLLAPHRPKEPAWFLATVGVSPDHQGKGLGSAVVLPGVEAAERAGVPAFLETSAPRNLPFYERLGFTVTADVEVPEGPRTWCMTRKPGA

Experiments:
Format in all cases: cell-based
Nalm6 cells = experiment: JNG assay, co-culture with Nalm6 cells; conditions: co-culture with Nalm6
Protocol: Cellular supernatant is collected and assayed for the induction of cytokines (e.g., IL2).
JNG (Jurkat cells expressing EGFP under an NFAT promoter) were infected with lentiviral vectors encoding different single chain and multi-chain SARs by spinfection in the presence of 8 µg/ml of Polybrene® (Sigma, Catalog no. H9268). The Jurkat-NFAT-GFP cells are engineered in such a way that the IL-2 promoter, which carries NFAT binding sites, is cloned upstream of the GFP gene. These cells have been used to study signaling via TCR and CAR. The different SARs were stably expressed in Jurkat NFAT-GFP cells by lentiviral mediated gene transfer, followed by selection with puromycin or blasticidin. No drug selection was used in case the construct lacked an antibiotic resistance gene. The SAR-expressing Jurkat-NFAT-GFP cells were cocultured with the target cells at E:T ratio of approximately 1:2 for approximately 4 hours to 18 hours. When the interaction between SIRs and their target antigen results in activation of the NFAT pathway, GFP expression is induced. […] GFP expression was monitored by FACS analysis. The Jurkat-NFAT-GFP (parental) cells were used as control. The structure of different constructs can be determined based on their names. For example, the construct CD8SP-CD19-hu-mROO5-1-vL-[hTCRa-C SDVP]-F-F2A-Spe-IgHSP-Apa-CD20-vHH-2HCD25-G4S-CDl9-hu-mROO5-1-vH-Mlu-[hTCRb-KACIAH]-F-P2A-PAC has the following modules from 5′ to 3′ direction: a CD8 signal peptide (CD8SP), the CD19 targeting hu-mROO5-1 vL fragment (CD19-hu-mROO5-1), Xho1 cloning site, human TCRa constant chain containing CSDVP mutations (hTCRa-CSDVP), Furine cleavage site (F), F2A ribosomal skip sequence (F2A), SpeI site, human IgH signal peptide (IgHSP), Apa I restriction enzyme site, camelid CD20-2HCD25-VHH module targeting CD20, BamHI restriction enzyme site, Glycinex4-serine linker (G4S), BstI restriction enzyme site, CD19-hu-mROO5-1-vH fragment targeting CD19, Mlu I restriction enzyme site, human TCRb constant chain containing KACIAH mutations ([hTCRb-KACIAH]), Furine cleavage site (F), P2A ribosomal skip sequence and Puromycin resistance gene (PAC). The sequence of the other constructs in the table can be similarly determined from their names and by referring to the different Tables of this disclosure that provide the names and SEQ ID NO of the different modules. Alternatively, the composition and modular architecture of the different SAR constructs can be determined from their sequences by bioinformatics tools, including using nucleic acid and amino acids homology searches. A SAR is considered positive in the assay in case the SAR expressing Jurkat-NFAT-GFP cells show greater % GFP positive cells when cultured with the target cell line as compared to parental Jurkat-NFAT-GFP cells. The signs +/-, +, 2+ etc. after the name of the cell lines indicate the relative degree of positivity on the Jurkat-NFAT-GFP assay as measured by the % GFP positive cells after culture of the SAR expressing Jurkat-NFAT-GFP cells with that cell line above the % GFP cells observed in parental Jurkat NFAT-GFP cells serving as controls. In general, the number +/-, +, 2+, 3+, 4+, 5+ refer to approximately 5%, 10%, 20%, 30%, 40% and 50% GFP positive cells. The % of GFP induction in the above assay is dependent not only the relative strength of the SAR but also, among other factors, on the relative level of expression of the SAR in the JNG cells and the relative level of expression of the target antigen in the target cell line. To control for the difference in gene transduction efficiency of the different SAR constructs, the experiment was conducted with JNG cells transduced with SAR constructs co-expressing a drug resistance gene (e.g., puromycin or PAC) followed by drug selection to generate a stable population of SAR-expressing cells. […]

RAJI cells = experiment: JNG assay, co-culture with RAJI cells; conditions: JNG cells expressing construct, co-culture with Raji
Summary of the method: (§1)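 Jurkat-NFAT-GFP (JNG) cells stably expressing SAR constructs via lentiviral transduction and puromycin/blasticidin selection were cocultured with target cells at E:T ~1:2 for ~4–18 h. NFAT-driven GFP was measured by FACS versus parental JNG cells; scores +/- to 5+ denote ~5–50% GFP-positive cells.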

L363 cells = experiment: JNG assay, co-culture with L363 cells; conditions: co-culture with L363
Summary of the method: as §1

Row | Molecule | NFAT-GFP ASSAY: Nalm6 (Nalm6 cells) | NFAT-GFP ASSAY: Raji (RAJI cells) | NFAT-GFP ASSAY: L363 (L363 cells)
1 | B1 | + (refer to approximately 5%, 10%, 20%, 30%, 40% and 50% GFP positive cells) | 2+ (refer to approximately 5%, 10%, 20%, 30%, 40% and 50% GFP positive cells) | 
2 | B2 | +/- (refer to approximately 5%, 10%, 20%, 30%, 40% and 50% GFP positive cells) |  | + (refer to approximately 5%, 10%, 20%, 30%, 40% and 50% GFP positive cells)
3 | B3 | +/- (refer to approximately 5%, 10%, 20%, 30%, 40% and 50% GFP positive cells) |  | + (refer to approximately 5%, 10%, 20%, 30%, 40% and 50% GFP positive cells)
4 | B4 | +/- (refer to approximately 5%, 10%, 20%, 30%, 40% and 50% GFP positive cells) |  | +/- (refer to approximately 5%, 10%, 20%, 30%, 40% and 50% GFP positive cells)
